# Test results as given in paper PMC6727741.
# Molecular target: IFT dynein heavy chain (D1bHC) (Chlamydomonas reinhardtii (endogenous in cc4533 and wdr92-1 cells)) (UniProt Q9SMH5)
# Test: SEC
substance,measurement,value
"IFT dynein heavy chain (D1bHC), Q9SMH5 1-4334",stoichiometry N,2
